Target: GST-Dip1 (S. pombe) (S. pombe) (UniProt O74771)
Test: pull-down

Sequence of UniProt O74771 (O74771 whole entry): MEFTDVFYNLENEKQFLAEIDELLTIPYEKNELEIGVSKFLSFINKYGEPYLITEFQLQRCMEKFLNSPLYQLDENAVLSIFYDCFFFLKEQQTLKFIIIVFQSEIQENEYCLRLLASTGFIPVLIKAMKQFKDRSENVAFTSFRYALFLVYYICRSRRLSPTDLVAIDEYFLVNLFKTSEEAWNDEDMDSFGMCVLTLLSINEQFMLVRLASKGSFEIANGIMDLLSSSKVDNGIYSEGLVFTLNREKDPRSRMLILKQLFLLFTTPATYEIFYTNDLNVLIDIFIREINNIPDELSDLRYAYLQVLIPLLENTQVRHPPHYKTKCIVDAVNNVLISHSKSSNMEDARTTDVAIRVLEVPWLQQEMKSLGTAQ

## S. pombe Arp2/3 complex (from UniProt Q9UUJ1 1-390)
  percent pulled down: 20%

Reference: article PMC3930447
